{"source": "paper PMC8551079", "key": {"MYB70 [1]": {"molecular_target": "T1, MYB70 (Arabidopsis thaliana, UniProt O22179 1-309)", "experiment": "EMSA"}, "MYB70 [2]": {"molecular_target": "T1, MYB70", "experiment": "EMSA", "remark": "listed apart in the source"}}, "note": "Read-outs that look alike come from different tables or passages of the source."}
{"binder": "GPAT5 probe (dsDNA) DNA 1: AATCATAGTTTTGTTACAAGCGAAATCTGAAA DNA 2: TTTCAGATTTCGCTTGTAACAAAACTATGATT", "values": [{"measurement": "binding result", "setting": "MYB70 [1]", "value": "binds"}]}
{"binder": "PER57 probe (PER probe) (dsDNA) DNA 1: GCCTCAACTAATAAGTTGTTATGTGCAA DNA 2: TTGCACATAACAACTTATTAGTTGAGGC", "values": [{"measurement": "binding result", "setting": "MYB70 [1]", "value": "binds"}]}
{"binder": "GH3.3 probe (dsDNA) DNA 1: ATCAAGAATTAGTTTTAGTTATCAATAAATAGGA DNA 2: TCCTATTTATTGATAACTAAAACTAATTCTTGAT", "values": [{"measurement": "binding result", "setting": "MYB70 [2]", "value": "binds"}]}
